# According to US9132169B2, “Methods and compositions for modulating adipocyte function” (Joslin Diabetes Center, Inc., priority 2003, dated 2015):
# Entries after “also recorded” stand apart in the source; their conditions may differ.
# Experiments:
# WT brown preadipocytes = assay: Brown adipocyte differentiation, Oil Red O staining; type: cell-based, mouse; conditions: for differentiation of brown preadipocytes, agent alone: brown preadipocyte cell line, single agent; for lipid accumulation as monitored by Oil Red O staining (brown adipocyte differentiation): 33 nM BMP, 10 days, absence of induction cocktail; for differentiation of brown preadipocytes, BMP plus insulin and T3: combination of BMP-6 or -7 plus insulin and T3
# Procedure: (§1) Preadipocytes were grown to confluence (day 0) in differentiation medium (Dulbecco's modified […] medium containing 10% Fetal Bovine Serum supplemented with 20 nM insulin and 1 nM T3). Adipocyte differentiation was induced by treating confluent cells for 48 hours in differentiation medium further supplemented with 0.5 mM isobutylmethylxanthine (IBMX), 0.5 mM dexamethazone, and 0.125 mM indomethacin. After this induction period (day 2), cells were placed back to differentiation medium, which was then changed every second day.
# (§2) Dishes were washed twice with phosphate-buffered saline and fixed with 10% buffered formalin for at least 1 hour at room temperature. Cells were then stained for 2 hours at room temperature with a filtered oil red 0 solution (0.5% oil red 0 in isopropyl alcohol), washed twice with distilled water, and visualized.
# Brown fat precursor cells were isolated from intrascapular brown fat of newborn mice and immortalized by SV40 T antigen.
# To begin to explore the role of BMPs on brown adipogenesis, the effect of six different BMPs on differentiation of WT brown preadipocytes was examined. In the absence of induction cocktail, 33 nM of BMPs were added to the normal culture medium and fresh medium was changed every 2 days.
# BMP-6 gene expression = BMP-6 gene expression in wildtype brown adipocytes; type: cell-based, mouse; conditions: acute treatment
# [1] = tested on: white preadipocytes (3T3-L1 cells); assay: White preadipocyte differentiation, Oil Red O staining; type: cell-based; conditions: for insulin- and insulin/T3-induced differentiation of 3T3-L1 cells: BMP alone or combined with insulin
# Procedure: as §1, §2
# PGC-1a = PGC-1a mRNA expression by quantitative RT-PCR in brown preadipocytes; type: cell-based, mouse
# Source text: (§3) PGC-1∀ and UCP-1 are two decisive cellular markers of brown adipocytes.
# [2] = tested on: IRS-1 KO brown preadipocytes; assay: Differentiation of IRS-1 knockout brown preadipocytes; type: cell-based, mouse
# Procedure: as §1, §2
# These factors utilize a complex signaling pathway to exert their pleiotropic biological effects involving activation of their respective cell surface receptors and phosphorylation of several intracellular insulin/IGF-1 receptor substrates (IRS). To determine the role of this signaling pathway in the regulation of brown adipogenesis and metabolism, brown preadipocyte cell lines were generated from wild-type (WT) and different IRS knockout (KO) mice (Fasshauer et al., Mol Cell Biol 21:319-329 (2001); Tseng et al., J Biol. Chem. 277:31601-31611 (2002); Tseng et al., Mol Cell Biol 24:1918-1929 (2004)). These cells were studied in both their fibroblastic and differentiated states. […] This occurred not only at the levels of lipid accumulation, but also involved blockade of the normal pattern of progression in the transcriptional regulators of adipogenesis, such as C/EBPα and PPARγ, as well as thermogenic marker UCP-1.
# The differentiation inductive effect of BMP-6 is more easily seen in brown adipocytes from IRS-1 knockout animals, which are known to have a defect in adipocyte differentiation. […]
# PPARγ = PPARγ mRNA and protein expression in brown preadipocytes; type: cell-based, mouse
# Source text: as §3
# [3] = tested on: Pref-1 (preadipocyte factor-1); assay: Pref-1 expression by quantitative RT-PCR in IRS-1 KO cells; type: cell-based, mouse; conditions: 30 nM over six days
# Source text: IRS-1 signalling plays an important role in insulin resistance, which is a hallmark of Type II diabetes.
# [4] = tested on: mouse embryonic fibroblasts (MEFs); assay: Adipogenesis in mouse embryonic fibroblasts, Oil Red O staining; type: cell-based; conditions: MEF cells, 1 μM rosiglitazone plus BMP, 10 days
# Procedure: To examine whether BMPs play a role in determining the fate of pluripotent stem cells toward brown adipocyte lineage, murine pluripotent cells, the effect of BMPs on adipogenesis was evaluated in mouse embryonic fibroblasts (MEFs), which were generated lab using the 3T3 protocol of Todaro and Green (J. Cell. Biol. 17:299-313 (1963)). The MEF cells were maintained in Dulbecco's Modified Eagle Medium (DMEM) supplemented with 10% FBS.
# (§4) MEF cells were grown in culture media containing 1 μM of rosiglitazone, BMPs, or a combination of both for 10 days. Oil Red O staining was performed at the end of differentiation to monitor the degree of adipogenesis. […] Whole cell lysates were isolated from these cells to examine the expression of the adipogenic marker FAS (fatty acid synthase).
# [5] = tested on: FAS (fatty acid synthase); assay: FAS protein expression in MEF whole cell lysates; type: cell-based, mouse; conditions: MEF cells, presence of induction cocktail or TZD
# Procedure: as §4
# Smad 1/5/8 = assay: BMP signaling in WT brown preadipocytes, phospho-specific antibody Western blot; type: cell-based, mouse
# Procedure: (§5) Brown fat precursor cells were isolated from intrascapular brown fat of newborn mice and immortalized by SV40 T antigen. […] Following differentiation with an induction cocktail of 20 nM insulin, 1 nM thyroid hormone [3,5,3′-triiodothyronine (T3)], 0.5 μM dexamethazone, 0.125 mM indomethacin, and 0.5 mM isobutylmethylxanthine, pre-adipocytes became smaller, rounded up, accumulated fat, and the cytoplasm/nuclear-ratio increased dramatically. Once fully differentiated, multi-locular fat droplets could be detected both microscopically and by Oil Red-O staining. Expression of UCP-1 was detected at basal state and upon β-adrenergic stimulation, confirming the features of brown adipocytes (methods described in Klein et al., J. Biol. Chem. 274:34795-34802 (1999)).
# (§6) To see if BMPs were able to transmit signals into these cells, the WT brown preadipocytes were treated with recombinant BMP-6 (R&D Systems).
# p38 MAPK = assay: as above; type: cell-based, mouse; conditions: WT brown preadipocytes treated with recombinant BMP-6, phospho-specific antibodies (Thr180/Tyr182)
# Procedure: as §5, §6
# UCP-1 promoter = assay: UCP-1 expression reporter gene (UCP-1 promoter linked to firefly luciferase); type: cell-based; conditions: 10 uM TZD and retinoic acid, presence of PPARγ and RxRa
# Source text: Adaptive thermogenesis is an important component of energy homeostasis and a metabolic defense against obesity.
# UCP-1 = UCP-1 protein expression by Western blot in brown preadipocytes; type: cell-based, mouse; conditions: combination of 20 nM insulin, 1 nM T3 and 8.3 nM BMP-7
# Source text: as §3
# [6] = standard induction conditions (W induction)
molecule,measurement,setting,value
"N[C@@H](Cc1cc(I)c(Oc2ccc(O)c(I)c2)c(I)c1)C(=O)O [T3, 3,5,3′-triiodothyronine, reference compound]","differentiation of brown preadipocytes, agent alone",WT brown preadipocytes,pro-differentiative effects
IGF-1: known inducer of adipocyte differentiation,BMP-6 gene expression,BMP-6 gene expression,acutely induce
insulin: known inducer of adipocyte differentiation,"differentiation of brown preadipocytes, agent alone",WT brown preadipocytes,pro-differentiative effects
same,BMP-6 gene expression,BMP-6 gene expression,acutely induce
"BMP-6: Recombinant human BMP-6 (R & D Systems, MN) (protein, listed as Homo sapiens) RSASSRRRQQSRNRSTQSQDVARVSSASDYNSSELKTACRKHELYVSFQDLGWQDWIIAPKGYAANYCDGECSFPLNAHMNATNHAIVQTLVHLMNPEYVPKPCCAPTKLNAISVLYFDDNSNVILKKYRNMVVRACGCH",differentiation of white preadipocytes,"[1]; 33 nM, 8 days",did not induce differentiation
same,insulin- and insulin/T3-induced differentiation of 3T3-L1 cells,[1],Little to no effect
same,"WAT differentiation (3T3-L1), without induction",[1]; W/O induction,no change
same,"differentiation of 3T3-L1 cells, with induction",[1]; [6],inhibited the level of differentiation
same,PGC-1a mRNA expression at day 3,"PGC-1a; Q-RT-PCR, day 3",quickly induced
same,PGC-1a mRNA expression as differentiation progressed to day 9,"PGC-1a; Q-RT-PCR, to day 9",further increased
same,expression of PGC-1 during spontaneous differentiation,PGC-1a; addition of recombinant BMP-6,induced expression
same,"PGC-1a mRNA expression at 0, 3, and 6 days after treatment","PGC-1a; quantitative RT-PCR, FIG. 3",increase
same,differentiation of IRS-1 KO brown preadipocytes,[2]; 30 nM over six days,restores the defects in differentiation
same,"BAT differentiation of IRS-1 knockout preadipocytes, without induction",[2]; W/O induction,no change
same,"differentiation of IRS-1 knockout brown preadipocytes, with induction",[2]; [6],"rescue, at least partially; also recorded: enhanced the level of differentiation"
same,PPARγ protein expression,"PPARγ; BMP-6 treatment, course of differentiation (0, 3, 6 days), Western blot",markedly induced; also recorded: approximately maximal by day 3; also recorded: increase
same,PPARγ mRNA expression,"PPARγ; BMP-6 treatment, course of differentiation (0, 3, 6 days), quantitative RT-PCR",markedly induced; also recorded: approximately maximal by day 3; also recorded: increase
same,expression of PPARγ during spontaneous differentiation,PPARγ; addition of recombinant BMP-6,induced expression
same,Pref-1 expression,[3],down-regulation
same,morphology of wild-type brown pre-adipocytes,WT brown preadipocytes,cause changes in the morphology
same,lipid accumulation as monitored by Oil Red O staining (brown adipocyte differentiation),WT brown preadipocytes,substantial increase in lipid accumulation
same,"differentiation of wildtype brown preadipocytes, without induction",WT brown preadipocytes; absence of standard induction conditions (W/O induction),increased the level of brown adipocyte differentiation
same,"differentiation of brown preadipocytes, agent alone",WT brown preadipocytes,pro-differentiative effects
same,"differentiation of brown preadipocytes, BMP plus insulin and T3",WT brown preadipocytes,strongly enhanced
same,"differentiation of wildtype brown preadipocytes, with induction",WT brown preadipocytes; [6],enhance differentiation; also recorded: enhanced the level of differentiation
same,acceleration of differentiation (Oil Red O staining),"WT brown preadipocytes; wild-type brown adipocytes, presence of induction cocktail",1 to 2 days
same,TZD effects on adipocyte differentiation (Oil Red O),[4],potentiated the TZD effects
same,FAS protein expression,[5],induced FAS protein expression
same,activation of Smad 1/5/8,Smad 1/5/8; WT brown preadipocytes treated with recombinant BMP-6,quickly activated
same,activation of Smad 1/5/8,"Smad 1/5/8; WT brown preadipocytes treated with recombinant BMP-6, listed as BMP6",activation
same,activation of p38 MAPK,p38 MAPK,quickly activated
same,activation of p38 MAPK,p38 MAPK; listed as BMP6,activation
"BMP-4: bone morphogenetic protein 4, added at 33 nM to culture medium (protein, listed as Homo sapiens) SPKHHSQRARKKNKNCRRHSLYVDFSDVGWNDWIVAPPGYQAFYCHGDCPFPLADHLNSTNHAIVQTLVNSVNSSIPKACCVPTELSAISMLYLDEYDKVVLKNYQEMVVEGCGCR",lipid accumulation as monitored by Oil Red O staining (brown adipocyte differentiation),WT brown preadipocytes,substantial increase in lipid accumulation
"BMP-7: bone morphogenetic protein 7 (protein, listed as Homo sapiens) STGSKQRSQNRSKTPKNQEALRMANVAENSSSDQRQACKKHELYVSFRDLGWQDWIIAPEGYAAYYCEGECAFPLNSYMNATNHAIVQTLVHFINPETVPKPCCAPTQLNAISVLYFDDSSNVILKKYRNMVVRACGCH",insulin- and insulin/T3-induced differentiation of 3T3-L1 cells,[1],Little to no effect
same,"PPARγ expression, combination treatments","PPARγ; combination of 20 nM insulin, 1 nM T3 and 8.3 nM BMP-7, Western blot",strongest induction
same,TZD/RA-induced stimulation of UCP-1 promoter activity,UCP-1 promoter,enhanced
same,lipid accumulation as monitored by Oil Red O staining (brown adipocyte differentiation),WT brown preadipocytes,substantial increase in lipid accumulation
same,"differentiation of brown preadipocytes, agent alone",WT brown preadipocytes,pro-differentiative effects
same,"differentiation of brown preadipocytes, BMP plus insulin and T3",WT brown preadipocytes,strongly enhanced
same,"differentiation of brown preadipocytes, insulin plus B7",WT brown preadipocytes; combination with insulin,strong combination effects
same,TZD effects on adipocyte differentiation (Oil Red O),[4],potentiated the TZD effects
same,"UCP-1 expression, combination treatments",UCP-1,strongest induction
same,FAS protein expression,[5],induced FAS protein expression
"BMP-5: bone morphogenetic protein 5, added at 33 nM to culture medium (protein, listed as Homo sapiens) NQNRNKSSSHQDSSRMSSVGDYNTSEQKQACKKHELYVSFRDLGWQDWIIAPEGYAAFYCDGECSFPLNAHMNATNHAIVQTLVHLMFPDHVPKPCCAPTKLNAISVLYFDDSSNVILKKYRNMVVRSCGCH",lipid accumulation as monitored by Oil Red O staining (brown adipocyte differentiation),WT brown preadipocytes,weaker effect
"BMP-3: bone morphogenetic protein 3, added at 33 nM to culture medium (protein, UniProt P12645 363-472, looked up) Bone morphogenetic protein 3: QWIEPRNCARRYLKVDFADIGWSEWIISPKSFDAYYCSGACQFPMPKSLKPSNHATIQSIVRAVGVVPGIPEPCCVPEKMSSLSILFFDENKNVVLKVYPNMTVESCACR",lipid accumulation as monitored by Oil Red O staining (brown adipocyte differentiation),WT brown preadipocytes,no effect
